# Measurements as given in patent US20220169728A1 (AB THERAPEUTICS, published 2022).
# Numbering of substitutions follows the chain as printed. Names and notes keep the numbering of the source.
# T1: CD55 (UniProt P08174 35-353, limits assumed)
# T1 construct: whole, on cells; also called CD55 on Rituximab resistant Raji cells (RRCL)
# T1 sequence (looked up): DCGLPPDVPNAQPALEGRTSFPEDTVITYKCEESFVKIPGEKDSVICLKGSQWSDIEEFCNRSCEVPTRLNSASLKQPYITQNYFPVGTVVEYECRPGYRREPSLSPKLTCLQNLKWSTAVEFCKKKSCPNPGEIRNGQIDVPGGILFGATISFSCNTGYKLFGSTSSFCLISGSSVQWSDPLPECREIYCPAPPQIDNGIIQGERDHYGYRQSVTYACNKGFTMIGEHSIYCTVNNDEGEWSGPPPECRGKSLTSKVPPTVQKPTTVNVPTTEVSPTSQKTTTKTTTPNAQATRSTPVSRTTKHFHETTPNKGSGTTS
# B1: CD20/CD3 BsMab with common VL (SEQ ID NO: 3) H33E (bispecific antibody, V domains shown)
# VH 1: QVQLQQPGAELVKPGASVKMSCKASGYTFTSYNMHWVKQTPGRGLEWIGAIYPGNGDTSYNQKFKGKATLTADKSSSTAYMQLSSLRSEDSAVYYCARSTYYGGDWYFNVWGAGTTVTVSA
# VH 2: EVQLQESGAELARPGASVKMSCKASGYTFTSYTMHWVKQRPGEGLEWIGYINPSSGYTKYNQKFKDKATLTADKSSSTAYMELSSLTSEDSAVYYCARWQDYDVYFDYWGEGTTLTVSS
# VL: QIVLSQSPAILSASPGEKVTMTCRASSSVSYIEWFQQKPGSSPKPWIYATSNLASGVPVRFSGSGSGTSYSLTISRVEAEDAATYYCQQWTSNPPTFGGGTKLEIKR
# B2: CD20/CD3 BsMab with common VL (SEQ ID NO: 3) H33T (bispecific antibody, V domains shown)
# VH 1: B1 VH 1
# VH 2: B1 VH 2
# VL: B1 VL with E33T
# B3: CD20/CD3 BsMab with common VL (SEQ ID NO: 3) H33V (bispecific antibody, V domains shown)
# VH 1: B1 VH 1
# VH 2: B1 VH 2
# VL: B1 VL with E33V
# B4: CD20/CD3 BsMab with common VL (SEQ ID NO: 3) H33D (bispecific antibody, V domains shown)
# VH 1: B1 VH 1
# VH 2: B1 VH 2
# VL: B1 VL with E33D
# B5: CD20/CD3 BsMab with common VL (SEQ ID NO: 3) H33S (bispecific antibody, V domains shown)
# VH 1: B1 VH 1
# VH 2: B1 VH 2
# VL: B1 VL with E33S
# B6: CD20/CD3 BsMab with common VL (SEQ ID NO: 3) H33M (bispecific antibody, V domains shown)
# VH 1: B1 VH 1
# VH 2: B1 VH 2
# VL: B1 VL with E33M
# B7: CD20/CD3 BsMab with common VL (SEQ ID NO: 3) N93L (bispecific antibody, V domains shown)
# VH 1: B1 VH 1
# VH 2: B1 VH 2
# VL: B1 VL with E33H, N93L
# B8: CD20/CD3 BsMab with common VL (SEQ ID NO: 3) Q88V (bispecific antibody, V domains shown)
# VH 1: B1 VH 1
# VH 2: B1 VH 2
# VL: B1 VL with E33H, Q88V
# B9: CD20/CD3 BsMab with common VL (SEQ ID NO: 3) Q88Y (bispecific antibody, V domains shown)
# VH 1: B1 VH 1
# VH 2: B1 VH 2
# VL: B1 VL with E33H, Q88Y
# B10: CD20/CD3 BsMab with common VL (SEQ ID NO: 3) Q88L (bispecific antibody, V domains shown)
# VH 1: B1 VH 1
# VH 2: B1 VH 2
# VL: B1 VL with E33H, Q88L
# B11: CD20/CD3 BsMab with common VL (SEQ ID NO: 3) Q88G (bispecific antibody, V domains shown)
# VH 1: B1 VH 1
# VH 2: B1 VH 2
# VL: B1 VL with E33H, Q88G
# B12: CD20/CD3 BsMab with common VL (SEQ ID NO: 3) Q88H (bispecific antibody, V domains shown)
# VH 1: B1 VH 1
# VH 2: B1 VH 2
# VL: B1 VL with E33H, Q88H
# B13: CD20/CD3 BsMab with common VL (SEQ ID NO: 3) Q88M (bispecific antibody, V domains shown)
# VH 1: B1 VH 1
# VH 2: B1 VH 2
# VL: B1 VL with E33H, Q88M
# B14: CD20/CD3 BsMab with common VL (SEQ ID NO: 3) Q88P (bispecific antibody, V domains shown)
# VH 1: B1 VH 1
# VH 2: B1 VH 2
# VL: B1 VL with E33H, Q88P
# B15: CD20/CD3 BsMab with common VL (SEQ ID NO: 3) N93C (bispecific antibody, V domains shown)
# VH 1: B1 VH 1
# VH 2: B1 VH 2
# VL: B1 VL with E33H, N93C
# B16: anti-CD55 antibody with CD55VH (SEQ ID NO: 14) N52C and VL (SEQ ID NO: 15) (antibody, V domains shown)
# VH: QVKLQESGGGLVQPGGSLKLSCAASGFTFSGYGMSWIRQTPDKRLEWVATICSGGSYTYYSDSVKGRFTISRDNVKNTLYLQMSSLKSEDTAMYYCARRNGTLYYYLMDYWGRGTLVTVSS
# VL: QSVLTQPPSASGSPGQSVTISCTGTSSDVGGYNYVSWYQQHPGKAPKFMIYDVSKRPSGVSNRFSGSKSGNTASLTISGVQAEDEADYYCSSYTSASTVIFGGGTKLTVL
# notes: also called Test 3
# B17: anti-CD55 antibody with CD55VH (SEQ ID NO: 14) N52E and VL (SEQ ID NO: 15) (antibody, V domains shown)
# VH: B16 VH with C52E
# VL: B16 VL
# notes: also called Test 6
# B18: anti-CD55 antibody with CD55VH (SEQ ID NO: 14) N52G and VL (SEQ ID NO: 15) (antibody, V domains shown)
# VH: B16 VH with C52G
# VL: B16 VL
# notes: also called Test 4
# B19: anti-CD55 antibody with CD55VH (SEQ ID NO: 14) N52L and VL (SEQ ID NO: 15) (antibody, V domains shown)
# VH: B16 VH with C52L
# VL: B16 VL
# notes: also called Test 10
# B20: anti-CD55 antibody with CD55VH (SEQ ID NO: 14) N52M and VL (SEQ ID NO: 15) (antibody, V domains shown)
# VH: B16 VH with C52M
# VL: B16 VL
# notes: also called Test 8
# B21: anti-CD55 antibody with CD55VH (SEQ ID NO: 14) N52P and VL (SEQ ID NO: 15) (antibody, V domains shown)
# VH: B16 VH with C52P
# VL: B16 VL
# notes: also called Test 11
# Biological target: CD3 (Homo sapiens (Human), UniProt P07766 23-207; P04234 22-171; P09693 23-182)
# Sequence (P07766 23-207 limits assumed, chain 1 of 3): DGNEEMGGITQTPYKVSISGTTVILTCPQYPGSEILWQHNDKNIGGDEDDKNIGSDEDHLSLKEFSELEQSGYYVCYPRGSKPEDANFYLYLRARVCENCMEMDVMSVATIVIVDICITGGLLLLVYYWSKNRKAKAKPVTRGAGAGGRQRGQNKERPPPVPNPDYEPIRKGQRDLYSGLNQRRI
# Sequence (P04234 22-171 limits assumed, chain 2 of 3): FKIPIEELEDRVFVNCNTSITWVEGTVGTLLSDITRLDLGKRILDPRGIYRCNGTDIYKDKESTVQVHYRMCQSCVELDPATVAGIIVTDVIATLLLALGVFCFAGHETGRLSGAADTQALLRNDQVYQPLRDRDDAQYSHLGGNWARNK
# Sequence (P09693 23-182 limits assumed, chain 3 of 3): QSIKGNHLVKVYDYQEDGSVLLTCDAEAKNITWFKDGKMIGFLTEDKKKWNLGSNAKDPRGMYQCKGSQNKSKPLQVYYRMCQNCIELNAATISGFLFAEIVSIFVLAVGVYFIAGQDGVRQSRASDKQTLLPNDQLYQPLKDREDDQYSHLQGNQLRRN
# Experiment: cell-based or functional assay
Binder,"Function % 0.025 ug/ml (T cell activation, CD69 on Jurkat cells with Raji cells, against the unmutated baseline)","Function % 2 ug/ml (T cell activation, CD69 on Jurkat cells with Raji cells, against the unmutated baseline)"
B1,89%,104%
B2,99%,106%
B3,83%,104%
B4,109%,96%
B5,108%,95%
B6,13%,74%
B7,9%,65%
B8,14%,75%
B9,8%,21%
B10,8%,55%
B11,8%,39%
B12,12%,36%
B13,27%,95%
B14,7%,16%
B15,16%,77%

# Biological target: T1, CD55
# Experiment: binding at 5 µg/ml against the unmutated antibody (SEQ ID NO: 14 + 15); format not stated
row,Binder,Function remaining percentage (5 µg/ml)
1,B16,32%
2,B17,21%
3,B18,28%
4,B19,15%
5,B20,16%
6,B21,11%
